Assay results published in patent US20110237779A1.
Where a chain is given by its changes, count along the chain named. Names and notes keep the numbering of the source.

B1: MHM24 direct hypervariable region graft on the acceptor human consensus framework (Fab displayed on phage) (Fab, V domains shown)
VH: EVQLVESGGGLVQPGGSLRLSCAASGYSFTGHWMNWVRQAPGKGLEWVGMIHPSDSETRLNQKFKDRFTISADTSKNTAYLQMNSLRAEDTAVYYCARGIYFYGTTYFDYWGQGTLVTVSS
VL: DIQMTQSPSSLSASVGDRVTITCRASKTISKYLAWYQQKPGKAPKLLIYSGSTLQSGVPSRFSGSGSGTDFTLTISSLQPEDFATYYCQQHNEYPLTFGQGTKVEIK
B2: MHM24 library clone, CDR-L2 SGSTLES (Fab, V domains shown)
VH: B1 VH
VL: B1 VL with Q55E
B3: MHM24 library clone, CDR-L2 NARSLQS (Fab, V domains shown)
VH: B1 VH
VL: B1 VL with S50N, G51A, S52R, T53S
B4: MHM24 library clone, CDR-L2 SGSIFQY, VH Y100dT (Fab, part only; not given: CH1, light constant and phage P3, part only)
light chain: DIQMTQSPSSLSASVGDRVTITCRASKTISKYLAWYQQKPGKAPKLLIYSGSIFQYGVPSRFSGSGSGTDFTLTISSLQPEDFATYYCQQHNEYPLTFGQGTKVEIKR
heavy chain (VH-CH1 fused to phage P3), part: B1 VH
B5: MHM24 library clone, CDR-L2 SGRTLWP (Fab, V domains shown)
VH: B1 VH
VL: B1 VL with S52R, Q55W, S56P
B6: MHM24 library clone, CDR-L2 SGRSLQR, VH L45P (Fab, V domains shown)
VH: B1 VH with L45P
VL: B1 VL with S52R, T53S, S56R
B7: MHM24 library clone, CDR-L2 SGGTLHR (Fab, V domains shown)
VH: B1 VH
VL: B1 VL with S52G, Q55H, S56R
B8: MHM24 library clone, CDR-L2 SGYSLHR, VL K27E, L96V (Fab, V domains shown)
VH: B1 VH
VL: B1 VL with K27E, S52Y, T53S, Q55H, S56R, L96V
B9: MHM24 library clone, CDR-L2 SGSALQS (Fab, V domains shown)
VH: B1 VH
VL: B1 VL with T53A
B10: MHM24 library clone, CDR-L2 SGRSLQS, VH S28R (Fab, V domains shown)
VH: B1 VH with S28R
VL: B1 VL with S52R, T53S
B11: MHM24 library clone, CDR-L2 SGSTLES, VH S55I (Fab, V domains shown)
VH: B1 VH with S56I
VL: B1 VL with Q55E
B12: MHM24 library clone, CDR-L2 TGSTLES, VL S26T (Fab, V domains shown)
VH: B1 VH
VL: B1 VL with S26T, S50T, Q55E
B13: MHM24 library clone, CDR-L2 SGSTLES, VH D101E (Fab, V domains shown)
VH: B1 VH with D109E
VL: B1 VL with Q55E
B14: MHM24 library clone, CDR-L2 SGRALQS (Fab, V domains shown)
VH: B1 VH
VL: B1 VL with S52R, T53A
B15: MHM24 library clone, CDR-L2 SGRAMQR (Fab, V domains shown)
VH: B1 VH
VL: B1 VL with S52R, T53A, L54M, S56R

target: human LFA-1 (human) (UniProt P20701); test: phage ELISA, Fab on phage, competition with antigen in solution

Binder | IC50
B1 | 6 nM

target: human LFA-1 (human) (UniProt P20701); test: phage ELISA, Fab on phage, competition with antigen in solution; IC50 used as affinity estimate

Binder | IC50
B1 | 4 nM

target: human LFA-1 (human) (UniProt P20701); test: phage ELISA, solution competition: Fab-phage incubated with serially diluted LFA-1, unbound phage captured on LFA-1-coated wells; IC50 used as affinity estimate

Binder | IC50
B2 | 9 nM
B3 | 32 nM
B4 | 11 nM
B5 | 17 nM
B1 | 6 nM
B6 | 27 nM
B7 | 6 nM
B8 | 41 nM
B9 | 8 nM
B10 | 17 nM
B11 | 4 nM
B12 | 4 nM
B13 | 8 nM
B14 | 9 nM
B15 | 11 nM
